Measured values taken from patent US20230009539A1 (CLEVELAND CLINIC FOUNDATION, published 2023).

Target: T1, IKKi (endogenous, MEFs) (mouse (MEFs), UniProt Q9R0T8 1-717)
T1 sequence (looked up): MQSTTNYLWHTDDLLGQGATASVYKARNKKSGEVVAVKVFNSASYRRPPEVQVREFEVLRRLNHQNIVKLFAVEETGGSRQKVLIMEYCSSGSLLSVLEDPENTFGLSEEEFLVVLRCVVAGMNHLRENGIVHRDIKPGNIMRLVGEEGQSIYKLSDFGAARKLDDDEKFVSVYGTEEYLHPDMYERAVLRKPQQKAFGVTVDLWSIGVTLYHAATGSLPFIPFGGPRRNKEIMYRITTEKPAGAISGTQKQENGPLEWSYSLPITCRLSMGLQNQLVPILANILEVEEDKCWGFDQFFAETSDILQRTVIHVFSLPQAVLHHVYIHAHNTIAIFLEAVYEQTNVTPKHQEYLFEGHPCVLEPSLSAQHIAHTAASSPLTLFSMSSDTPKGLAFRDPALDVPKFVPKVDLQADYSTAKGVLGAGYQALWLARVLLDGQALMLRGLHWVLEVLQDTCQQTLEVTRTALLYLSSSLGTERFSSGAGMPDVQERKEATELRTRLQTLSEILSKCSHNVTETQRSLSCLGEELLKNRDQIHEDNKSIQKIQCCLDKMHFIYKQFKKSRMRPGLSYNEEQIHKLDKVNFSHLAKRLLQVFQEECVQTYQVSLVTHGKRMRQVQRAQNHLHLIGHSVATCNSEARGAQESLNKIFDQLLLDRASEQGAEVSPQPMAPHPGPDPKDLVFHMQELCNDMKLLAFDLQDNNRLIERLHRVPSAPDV
Assay: anti-FLAG immunoprecipitation from cytoplasmic and nuclear fractions of reconstituted MEFs (FIG. 5G)
Description: Immunoblot, immunoprecipitation and nuclear fractionation: Cell were harvested and lysed on ice in a lysis buffer containing 0.5% Triton X-100, 20 mM Hepes pH 7.4, 150 mM NaCl, 12.5 mM-glycerophosphate, 1.5 mM MgCl2, 10 mM NaF, 2 mM dithiothreitol, 1 mM sodium orthovanadate, 2 mM EGTA, […], and 1 mM phenylmethylsulfonyl fluoride for 20 minutes, followed by centrifuging at 12,000 rpm for 15 minutes to extract clear lysates. For immunoprecipitation, cell lysates were incubated with 1 μg of antibody and A-sepharose beads at 4 degree overnight. After incubation, the beads were washed four times with lysis buffer and the precipitates were eluted with 2× sample buffer. Elutes and whole cell extracts were resolved on SDS-PAGE followed by immunobloting with antibodies. Nuclear fractionation was performed using NUCLEI EZ PREP kit purchased from Sigma in accordance with the manufacturer's instruction. Nuclear pellets were suspended in 30p1 of nuclear extraction buffer (20 mM HEPES, 400 mM NaCl, 1 mM EDTA, 1 mM EGTA in water, pH 7.9) containing freshly prepared 1 mM DTT and protease inhibitor cocktail. After 1.5 h incubation on ice bath with intermittent vortexing, extracts were centrifuged and supernatant was collected for immunoprecipitation.

B1: FLAG-tagged mouse wild-type Act1 (WT) (other, UniProt Q8N7N6 1-555, looked up)
chain: MNRSIPVEVDESEPFPSQLLKPIPEYSPEEELEPPAPNTRNMAPSSLSVLQCPPLKLANHQPVSQQVTCLRAKVLEEGEASFFRRHPELGKDISSCSSGASEPESELGALPPEHRFTLTEKRNRWLGSQLSAASPDTGHESDKSDPSLPNALADSFSGGQEMMPRPRPRPGPHRHRAAPDVPTIDTGYDSQPQDVLGIRQLERPLPLTSSCYLQDLPGPLRSRELPPQFELERYPMNAQLLPPHPSPQAPWNCQYYCPGGPYHHQVPHGHGYPPAAAYQQVLQPALPGQVLPGARARGPRPVQKVILNDSSPQDQEERPAQRDFSFPRLPRDQLYRPPSNGVEAPEESLDLPAELRPHGPQAPSLAAVPRPPSNPLARGTLRTSNLPEELRKVFITYSMDTAMEVVKFVNFLLVNGFQTAIDIFEDRIRGIDIIKWMERYLRDKTVMIIVAISPKYKQDVEGAESQLDEDEHGLHTKYIHRMMQIEFISQGSMNFRFIPVLFPNAKKEHVPTWLQNTHVYSWPKNKKNILLRLLREEEYVAPPRGPLPTLQVVPL
notes: also called flag-tagged mAct1; flag-Act1; not shown: FLAG tag
**Q.** Does B1 bind?
**A.** binds
